Substitutions are numbered along the chain they refer to.
T1: human C5aR_NT-bio peptide (human, biotin tag (position not given))
T1 construct: Chemically synthesized linear peptide (Genscript); also called human C5aR N-terminal peptide; human C5aR peptide
T1 peptide: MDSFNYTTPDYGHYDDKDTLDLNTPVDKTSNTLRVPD

T2: C5aR expressed on purified human neutrophils (human, UniProt P21730 1-350)
T2 sequence (looked up): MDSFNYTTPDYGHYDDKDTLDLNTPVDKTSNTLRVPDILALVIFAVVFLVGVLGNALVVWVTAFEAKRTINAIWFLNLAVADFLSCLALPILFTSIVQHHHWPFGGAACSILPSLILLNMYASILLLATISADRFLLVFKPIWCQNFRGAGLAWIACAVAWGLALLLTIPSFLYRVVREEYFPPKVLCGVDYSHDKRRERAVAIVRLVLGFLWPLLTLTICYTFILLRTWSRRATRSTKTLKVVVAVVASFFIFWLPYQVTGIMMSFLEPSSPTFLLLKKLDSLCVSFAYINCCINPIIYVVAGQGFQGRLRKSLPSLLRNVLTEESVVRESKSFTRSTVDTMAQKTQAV

T3: full length cynomolgus C5aR stably expressed on CHO Flp-In cells (cynomolgus monkey (Macaca fascicularis))
T3 chain: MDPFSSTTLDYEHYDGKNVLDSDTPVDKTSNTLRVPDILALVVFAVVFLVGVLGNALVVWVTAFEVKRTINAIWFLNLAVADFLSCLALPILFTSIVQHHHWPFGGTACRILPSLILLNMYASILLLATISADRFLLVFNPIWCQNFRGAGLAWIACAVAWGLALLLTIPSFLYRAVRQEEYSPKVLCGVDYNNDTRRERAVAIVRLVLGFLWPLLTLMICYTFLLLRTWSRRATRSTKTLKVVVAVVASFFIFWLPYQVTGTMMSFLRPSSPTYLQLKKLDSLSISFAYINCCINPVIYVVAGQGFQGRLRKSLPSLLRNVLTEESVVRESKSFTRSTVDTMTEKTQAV

T4: full length human C5aR stably expressed on CHO Flp-In cells (human, UniProt P21730 1-350)
T4 construct: also called human C5aR expressed on CHO cells
T4 sequence: T2 sequence (looked up)

B1: MAB #2 (antibody, human IgG1, lambda)
heavy: EVQLVESGGGLVKPGGSLRLSCAASGFTFSSYAMHWVRQAPGKGLEWVGRIKSVAQGGTTDYAAHVKGRFTISRDDSKNTLYLQMNSLKTEDTAVYYCARVSHSTFDVWGQGTLVTVSSASTKGPSVFPLAPSSKSTSGGTAALGCLVKDYFPEPVTVSWNSGALTSGVHTFPAVLQSSGLYSLSSVVTVPSSSLGTQTYICNVNHKPSNTKVDKRVEPKSCDKTHTCPPCPAPEAEGAPSVFLFPPKPKDTLMISRTPEVTCVVVDVSHEDPEVKFNWYVDGVEVHNAKTKPREEQYNSTYRVVSVLTVLHQDWLNGKEYKCKVSNKALPSSIEKTISKAKGQPREPQVYTLPPSREEMTKNQVSLTCLVKGFYPSDIAVEWESNGQPENNYKTTPPVLDSDGSFFLYSKLTVDKSRWQQGNVFSCSVMHEALHNHYTQKSLSLSPGK
light: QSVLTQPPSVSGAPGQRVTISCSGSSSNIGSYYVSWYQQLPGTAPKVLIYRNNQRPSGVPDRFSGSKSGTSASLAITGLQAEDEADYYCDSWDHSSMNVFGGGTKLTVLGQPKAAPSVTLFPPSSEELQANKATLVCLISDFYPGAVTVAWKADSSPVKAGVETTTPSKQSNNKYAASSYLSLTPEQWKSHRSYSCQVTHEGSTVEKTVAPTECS
notes: lambda 1 light chain
B2: MAB #1 (antibody, human IgG1, lambda)
heavy: B1 heavy with V54K, H103F
light: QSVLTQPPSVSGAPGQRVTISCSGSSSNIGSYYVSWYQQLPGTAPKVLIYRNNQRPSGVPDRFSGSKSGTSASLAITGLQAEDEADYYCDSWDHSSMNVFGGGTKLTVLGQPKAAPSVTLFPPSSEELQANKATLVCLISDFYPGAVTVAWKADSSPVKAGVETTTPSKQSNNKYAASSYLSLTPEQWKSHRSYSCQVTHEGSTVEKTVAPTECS
notes: lambda 1 light chain, VH3-15 framework

Experiments:
[1] = target: T1, human C5aR_NT-bio peptide; test: BLI (Octet), apparent (bivalent)
[2] = target: T5, Cynomolgus FcRn p51 [1-297]_AviHis/p14 biotinylated (cynomolgus monkey, UniProt Q8SPV9 24-298; Q6T672 21-119, biotinylated in vitro with BirA (Avi tag)); test: BLI (Octet HTX), biotinylated FcRn on SA sensors, IgG titrated, steady state fit, apparent KD, pH 6.0; * deviation from fit model; pH 6.0
T5 construct: Heterodimer; UniProt Q8SPV9 (p51)
Source text: (§1) 0.5 nm of biotinylated human, cynomolgus, mouse and rat FcRn were captured on streptavidin (SA) sensors (FortéBIO, Pall Life Sciences). […] All sensorgrams were fitted using Data Analysis Software 10.0 (FortéBIO, Pall Life Sciences) to determine the apparent affinity and the data was fitted with a steady state model.

[3] = target: T6, HIS6-mouse C5aR-HV1B1-GAG (mouse); test: ELISA on coated VLPs, IgG titration
T6 construct: negative control; also called murine C5aR on VLPs; mouse C5aR expressed on virus-like-particles

[4] = target: T6, HIS6-mouse C5aR-HV1B1-GAG; test: ELISA, coated VLPs expressing mC5aR, IgG titration, AttoPhos fluorescence
[5] = target: T2, C5aR expressed on purified human …; test: cell-based or functional assay
[6] = target: T2, C5aR expressed on purified human …; test: cell-based or functional assay; remark: listed apart in the source
[7] = target: T5, Cynomolgus FcRn p51 [1-297]_AviHis/p14 …; test: BLI (Octet HTX), biotinylated FcRn on SA sensors, IgG titrated, steady state fit, apparent KD, pH 6.0; * deviation from fit model
Source text: as §1

[8] = target: T5, Cynomolgus FcRn p51 [1-297]_AviHis/p14 …; test: BLI (Octet HTX), biotinylated FcRn on SA sensors, IgG titrated, steady state fit, apparent KD, pH 7.2; ** slight binding at pH 7.2
Source text: as §1

[9] = target: T3, full length cynomolgus C5aR stably …; test: KinExA on Flp-In CHO cells
Procedure: (§2) Apparent KD determination on C5aR-expressing cells was performed at RT with a KinExA® 3200 instrument (Sapidyne Instruments). PBS (Gibco), supplemented with BSA (1 mg/mL) and 0.02% (v/v) NaN₃ was used as assay buffer. […] After equilibration, the samples were centrifuged and the supernatants were used for analysis. […] The apparent KD was obtained using KinExA® software and by “n-curve analysis,” which fits all of the given curves to a single KD value simultaneously.

[10] = target: T3, full length cynomolgus C5aR stably …; test: KinExA, MAB #1 as analyte, Flp-In CHO cells as titrant, apparent (bivalent) KD, n-curve analysis
Procedure: as §2

[11] = target: T4, full length human C5aR stably expressed …; test: as above
Procedure: as §2

Binder	fold weaker binding affinity compared to MAB #1 [1]	Kd [2]	binding result [3]	binding result [4]	Inhibition of CD11b expression, granulocytes in whole blood, 15 nM C5a: IC50 [5]	Inhibition of CD11b expression, monocytes in whole blood, 15 nM C5a: IC50 [5]	CD11b assay, granulocytes, 15 nM C5a, 20 minutes of IgG incubation: IC50 [6]	CD11b assay, granulocytes, 15 nM C5a, 300 minutes of IgG incubation: IC50 [6]	CD11b assay, granulocytes: x-fold improvement (20 min. vs 300 min.) [6]	CD11b assay, monocytes, 15 nM C5a, 20 minutes of IgG incubation: IC50 [6]	CD11b assay, monocytes, 15 nM C5a, 300 minutes of IgG incubation: IC50 [6]	CD11b assay, monocytes: x-fold improvement (20 min. vs 300 min.) [6]	Kd [7]	Kd [8]	fold weaker binding than to full-length human C5aR [9]	Kd [10]	Kd [11]
B1	~10 fold	30 nM	no binding														
B2				no binding (tested: ~300 nM)	9.8 nM	4.2 nM	11 nM	2.3 nM	4.8 fold	4 nM	0.7 nM	5.7 fold	6.8 nM	560 nM	~20 fold	2.98 nM	0.13 nM

— patent publication US20240400657A1 (MorphoSys, published 2024)
